This is an account of results in patent publication US20210363257A1 (Pieris, published 2021).

Test [1] has as its target T1, human PD-L1 expressed on cells (human, UniProt Q9NZQ7 19-290).
T1 construct: whole, on cells; also called Flp-In-CHO::huPDL-1; RKO cells
Kind of test: flow cytometry, RKO tumor cells (PD-L1-positive). Here is the method:
(§1) 5×10⁴ cells per well were incubated for 1 h in ice-cold PBS containing 5% fetal calf serum (PBS-FCS). A dilution series of the fusion proteins and control antibodies were added to the cells and incubated for 1 h on ice. Cells were washed twice with PBS and then incubated with a goat anti-hIgG Alexa647-labeled antibody for 30 min on ice. Cells were subsequently washed and analyzed using iQue Flow cytometer (Intellicyte Screener). Mean geometric fluorescent signals were plotted and fitted with Graphpad software using nonlinear regression (shared bottom, SLOPE=1).
For flow cytometric analysis, RKO cells were incubated with fusion proteins and detected using a fluorescently labeled anti-human IgG antibody as described in Example 6.

The target of test [2] is T2, huCD137-His (human CD137 with a C-terminal polyhistidine tag) (human, UniProt Q07011 24-186).
T2 construct: Bought; also called huCD137-His-Bio
Put plainly: ELISA, huCD137-His coated, detection anti-NGAL-HRP. Here is the method: (§2) Recombinant huPD-L1-His or cyPD-L1-His (human or cynomolgus PD-L1 with a C-terminal polyhistidine tag, R&D Systems or Sino Biologics) at the concentration of 1 μg/mL in PBS was coated overnight on microtiter plates at 4° C. After washing with PBS-0.05% T (PBS supplemented with 0.05% (v/v) Tween 20), the plates were blocked with 2% BSA (w/v) in PBS-0.1% T (PBS supplemented with 0.1% (v/v) Tween 20) for 1 h at room temperature. […] Bound molecules under study were detected by incubation with 1:5000 diluted anti-human IgG Fc-HRP (Jackson Laboratory) in PBS-0.1% T-2% BSA. After an additional wash step, fluorogenic HRP substrate (QuantaBlu, Thermo) was added to each well and the fluorescence intensity was detected using a fluorescence microplate reader.
(§3) The same ELISA setup was also employed to determine the binding potency of fusion proteins to CD137, where huCD137-His (human CD137 with C-terminal polyhistidine tag, R&D Systems) or cyCD137-Fc (cynomolgus CD137 C-terminally fused to Fc) was instead coated on a microtiter plate. The testing agents were similarly titrated and bound agents were detected via anti-NGAL-HRP.
Background: In an ELISA, binding on a coated surface is turned into a signal by an enzyme label.

The target in test [3] is T3, human CD137 expressed on cells (human, UniProt Q07011 24-255). Kind of test: cell-based or functional assay.
In test [4] the target is T4, huPD-L1-Fc (recombinant human PD-L1 Fc fusion) (human, UniProt Q9NZQ7 19-239).
T4 construct: Bought; also called tracer huPD-L1-Fc
Put plainly: competitive ELISA, huPD-1-His coated, 15 nM huPD-L1-Fc tracer, binder titrated. Here is the method: (§4) Recombinant huPD-1-His (Acrobiosystems) in PBS (1 μg/mL) was coated overnight on microtiter plates at 4° C. The plates were washed five times after each incubation step with 100 μL PBS-0.05% T (PBS supplemented with 0.05% (v/v) Tween 20). The plates were blocked with 2% BSA (w/v) in PBS-0.1% T (PBS supplemented with 0.1% (v/v) Tween 20) for 1 h at room temperature and subsequently washed again. […] The mixtures of fusion proteins and the tracer were added to the plates and incubated for 20 min at room temperature following by five washing steps with 100 μL PBS-0.05% T. Subsequently, a 1:5000 dilution of goat-anti human IgG-Fc HRP (Jackson) was added to the wells and incubated for 1 h. After an additional wash step, fluorogenic HRP substrate (QuantaBlu, Thermo) was added to each well, and the fluorescence intensity was detected using a fluorescence microplate reader.

Test [5] concerns the target T5, biotinylated huCD137-Fc (human CD137 Fc fusion) (human, UniProt Q07011 24-186, biotinylated).
T5 construct: Bought; also called huCD137-Fc-bio
Kind of test: competitive ELISA, antibody SEQ ID NOs: 28 and 29 coated (competitor), 1 nM huCD137-Fc-bio tracer, binder titrated. Here is the method: as §4, with “The” for “Recombinant huPD-1-His (Acrobiosystems) in PBS (1 μg/mL) was coated overnight on microtiter plates at 4° C. The”, “testing molecules” for “fusion proteins”, “ExtrAvidin-HRP (Sigma-Aldrich) in PBS-0.1% T-2% BSA” for “goat-anti human IgG-Fc HRP (Jackson)”
Competition data for an exemplary experiment are shown in FIG. 14, where the x-axis represents testing molecule concentration and the y-axis represents the measured trace molecule concentration. The data were fit to a 1:1 sigmoidal curve, where the IC₅₀ value and the maximum signal were free parameters, and the slope was fixed to unity.

Test [6] has as its target T1, human PD-L1 expressed on cells. Kind of test: flow cytometry, Flp-In-CHO::huPDL-1 cells. Here is the method: (§5) The geometric means of the fluorescence intensity were used to calculate EC₅₀ values using nonlinear regression (shared bottom, SLOPE=1).
as §1

Test [7] addresses T2, huCD137-His (human CD137 with a …). Kind of test: dual-binding ELISA, huCD137-His coated, binder titrated, detection with biotinylated huPD-L1-His.
For test [8], the target named is T6, cynomolgus PD-L1 expressed on cells (cynomolgus).
T6 construct: whole, on cells; also called Flp-In-CHO::cynoPDL-1
Kind of test: flow cytometry, Flp-In-CHO::cynoPDL-1 cells. Here is the method: as §5, §1
In general terms: A flow cytometer gives signals particle by particle.

Test [9] concerns the target T3, human CD137 expressed on cells. Put plainly: flow cytometry, Flp-In-CHO::huCD137 cells. Here is the method:
as §5, §1

Test [10] addresses cyCD137-Fc (cynomolgus CD137 C-terminally fused to Fc) (cynomolgus). Kind of test: ELISA, cyCD137-Fc coated, detection anti-NGAL-HRP. Here is the method:
as §2, §3

B1: fusion protein SEQ ID NOs: 86 and 91 (bispecific antibody, human IgG4 S228P, kappa, F234A L235A)
heavy: not shown
light: EIVLTQSPDTLSVTPKEKVTLTCRASQSIGTNIHWFQQKPGQSPKLLIKYASESISGVPSRFSGSGSGTDFTLTINSVEAEDAATYYCQQSNSWPYTFGQGTKLEIKRTVAAPSVFIFPPSDEQLKSGTASVVCLLNNFYPREAKVQWKVDNALQSGNSQESVTEQDSKDSTYSLSSTLTLSKADYEKHKVYACEVTHQGLSSPVTKSFNRGECGGGGSGGGGSGGGGSQDSTSDLIPAPPLSKVPLQQNFQDNQFHGKWYVVGQAGNIRLREDKDPIKMMATIYELKEDKSYDVTMVKFDDKKCMYDIWTFVPGSQPGEFTLGKIKSFPGHTSSLVRVVSTNYNQHAMVFFKFVFQNREEFYITLYGRTKELTSELKENFIRFSKSLGLPENHIVFPVPIDQCIDG
notes: Antibody-lipocalin mutein fusion, IgG4 S228P backbone; Bivalent to CD137
Take B1: the EC50 (commonly the midpoint of the concentration-response curve) in [1] was found to be 0.45 nM; in test [2] it was 0.57 nM; in test [6] it was 1.43 nM; in test [7], 3.3 nM; in [8] it was 1.41 nM; in test [9] it was 6.48 nM. In test [10], this molecule registered an EC50 of 13 nM. For the same molecule, the “EC50 [nM] With RKO cells (CD137 Bioassay, NFκB-luc2/CD137 Jurkat luminescence)” value in [3] is 0.0889 nM. Also, the values for the IC50 in [4] and in [5] were 3 nM and 0.99 nM, respectively.

B2: fusion protein SEQ ID NOs: 90 and 87 (bispecific antibody, human IgG4 S228P, kappa, F234A L235A)
heavy: not shown
light: EIVLTQSPDTLSVTPKEKVTLTCRASQSIGTNIHWFQQKPGQSPKLLIKYASESISGVPSRFSGSGSGTDFTLTINSVEAEDAATYYCQQSNSWPYTFGQGTKLEIKRTVAAPSVFIFPPSDEQLKSGTASVVCLLNNFYPREAKVQWKVDNALQSGNSQESVTEQDSKDSTYSLSSTLTLSKADYEKHKVYACEVTHQGLSSPVTKSFNRGEC
notes: Bivalent to CD137
Turning to B2, the EC50 in test [1] worked out at 0.51 nM; in test [2] it was 0.28 nM; in test [6], 3.64 nM; in test [7], 2.9 nM; in [8], 4.48 nM; in [9], 3.74 nM. This molecule displayed an EC50 in [10] of 5.9 nM. Besides, in test [3], the “EC50 [nM] With RKO cells (CD137 Bioassay, NFκB-luc2/CD137 Jurkat luminescence)” value worked out at 0.0809 nM. Further, the 50% inhibitory concentration (IC50) (commonly the concentration that gives 50% inhibition) is 2.3 nM in test [4] and 1.1 nM in test [5].
